Positions count from the first letter of the chain named.
Legend:
[1] = system: T1, BbsI P442A (subunit B variant) P442A (subunit B) (Brevibacillus laterosporus); test: cleavage_in_vitro; conditions: NEB4 buffer, relative activity 1; FI>=120 in NEB1 (1/4), >=32 in NEB2 (1/16), >=2 in NEB3 (1/256); reduced star activity
T1 sequence 1: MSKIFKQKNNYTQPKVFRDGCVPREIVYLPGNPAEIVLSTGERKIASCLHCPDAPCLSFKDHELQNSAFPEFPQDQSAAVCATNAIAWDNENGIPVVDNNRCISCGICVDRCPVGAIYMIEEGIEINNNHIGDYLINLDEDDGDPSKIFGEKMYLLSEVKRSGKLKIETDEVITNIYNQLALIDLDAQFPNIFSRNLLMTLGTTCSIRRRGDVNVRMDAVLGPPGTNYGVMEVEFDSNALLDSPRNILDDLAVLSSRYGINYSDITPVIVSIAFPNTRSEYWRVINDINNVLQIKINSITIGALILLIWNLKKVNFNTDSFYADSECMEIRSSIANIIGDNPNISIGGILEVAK
T1 sequence 2: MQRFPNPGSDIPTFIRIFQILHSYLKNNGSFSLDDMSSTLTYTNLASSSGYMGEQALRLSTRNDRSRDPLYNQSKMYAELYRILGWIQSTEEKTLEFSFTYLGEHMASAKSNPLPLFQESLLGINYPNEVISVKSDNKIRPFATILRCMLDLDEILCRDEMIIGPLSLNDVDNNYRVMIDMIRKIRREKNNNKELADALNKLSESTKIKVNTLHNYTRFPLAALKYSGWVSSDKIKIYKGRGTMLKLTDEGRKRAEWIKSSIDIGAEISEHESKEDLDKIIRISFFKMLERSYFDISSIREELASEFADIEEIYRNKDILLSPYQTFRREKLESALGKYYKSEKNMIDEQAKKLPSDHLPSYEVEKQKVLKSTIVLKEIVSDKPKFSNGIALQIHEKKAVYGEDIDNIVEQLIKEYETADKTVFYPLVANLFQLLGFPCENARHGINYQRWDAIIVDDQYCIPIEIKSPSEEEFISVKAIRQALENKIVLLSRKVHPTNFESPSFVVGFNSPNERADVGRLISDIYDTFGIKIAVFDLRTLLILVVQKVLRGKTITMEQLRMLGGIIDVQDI

[2] = system: T2, BbsI wild type (subunits A and B) (Brevibacillus laterosporus); test: cleavage_in_vitro; conditions: NEB4 buffer, relative activity 1; FI=32 in NEB1 (1/2), 120 in NEB2 (1), 64 in NEB3 (1/4); substrate sequence not stated
T2 sequence 1: T1 sequence 1
T2 sequence 2: T1 sequence 2 with A442P

## DNA substrate containing BbsI recognition site
[1]
  activity (fidelity index): > 500
[2]
  activity (fidelity index): 64
